The test deals with SARS-CoV nucleocapsid protein, recombinant (SARS-CoV, UniProt P59595 1-422). Nature of the test: SPR. Background: SPR reads the build-up and loss of mass on a sensor chip optically.

The term Kd denotes the concentration at which binding is half-saturated.

SARS-CoV nucleocapsid protein, recombinant, sequence (P59595 whole entry): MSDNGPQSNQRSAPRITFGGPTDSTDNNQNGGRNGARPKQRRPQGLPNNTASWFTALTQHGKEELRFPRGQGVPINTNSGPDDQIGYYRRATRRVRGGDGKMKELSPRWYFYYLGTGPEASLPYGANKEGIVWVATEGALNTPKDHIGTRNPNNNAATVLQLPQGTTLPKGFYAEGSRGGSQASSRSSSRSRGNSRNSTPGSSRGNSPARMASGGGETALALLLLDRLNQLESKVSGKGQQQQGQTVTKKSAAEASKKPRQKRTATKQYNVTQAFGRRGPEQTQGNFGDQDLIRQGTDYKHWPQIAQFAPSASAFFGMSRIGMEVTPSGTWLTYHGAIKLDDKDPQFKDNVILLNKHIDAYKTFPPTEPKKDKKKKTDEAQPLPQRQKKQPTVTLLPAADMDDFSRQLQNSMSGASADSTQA

B1: P301-F7 (antibody, V domains shown)
VH: QLQLQESGPGLVKPSETLSLTCTVSGGSISSTSYYWGWIRQPPGKGLEWIGSIYYSGSTYYNPSLKSRVTISVDTSKNQFSLKLSSVTAADTAVYYCARFSLYCSSTSCYENWFDPWGQGTLVTVSS
VL: QSVLTQPPSVSAAPGQKVTISCSGSSSNIGNNYVSWYQQLPGTAPKLLIYDNNKRPSGIPDRFSGSKSGTSATLGITGLQTGDEADYYCGTWDSSLSAGQVVFGGGTKLTVL
For the molecule B1, the equilibrium dissociation constant (Kd) worked out at 33.4 nM.

These data come from PMC9142731 (2022).
